The source of these data is a protein production outcome set (Wang et al. 2014).

A short description of the data set: label from the status in PepcDB records.

As to “MLTRAIKTQLVLLTVLAVIAVVVLGWYFLRIPSLVGIGRYTLYAELPRSGGLYRTANVTYRGITIGKVTGVEPTERGARATMSIDNGYQIPTDASANVHSVSAVGEQFVDLVSTRTSGPYLRHGQTITTTTVPSQIGPALDAANRGLAVLPKDRVASVLHEASEAVGGLGSSLNRLIEATQAIAHDVRGSLEDIDDIIERSAPIIDSQVNSGNEIARWAANLNTLAAQTAQTDPAVRSILANAAPTADQVNATFSDVRESLPQTLANLEVVIDMLKRYHNGVEQALVFLPQSGAIAQSVTTEFPGQAGLGVGGLALNQPPPCLTGFLPASEWRSPADTSTAPLPKGTYCRIPMDASNVVRGARNNPCVDVPGKRAATPRECRSNEAYVPGGTNPWYGDPNQMLSCPAPAARCDQPVKPGQVIPAPSVNNGINPLPADQLPGTPPPVNDPLQRPGSGTVQCNGQQPNPCVYTPSTFPTTIYDVQSGKVVAPDGVVYSVEASTHAGADGWKVMLAPTG”, the protein production entry was “failed”. As for “MLTTLAIGNYRSINHLVLPLSQLNLVTGANGSGKSNLYKALRLLAETAQGGVVEALAREGGLDSTWWAGPETSARMRRGEVPIQGQHPSEVRRLRLGFATEDLGFAITLGLPIPLPYPSAFMLDPEIKCEAIWGAGAYRPSSLLVERKNALVRAREGNRWAVLDQHADSGESFFNIVGRPRQAPEIGDLRAFINSWRFYDHFRIDRDAPCRQPQLGTRSPVLHHDGRNLASALQTIIEIGDVEDLEEALNDAFPGSRLEINAPPGGLFSVRLHQHGLLRPLEGAELSDGTLRYLLLMAALLTPRPPSLMVLNEPETSLHADLLPALARLIIRASRRSQVWVVSHSAPLINALAACDGCNVLELEKIQGQTQLRGVGLLDEPLWRWAD”, the protein production entry is listed as “failed”. As for “MLTVHRDARDYQIIFLCSFLSLGILARDWSLSPLVIAVVLATALTVQSLFTINQQGNFSRWFSLDTWQSLWRHQGWKSALITGLGLCLLLRANHLSTLILAASLAIASKFLLQAWGKHWFNPANFGIIAALTLTGDAWVSPGQWGTTLWLGAVFLAAGGLVLGKVGRWDTSIMFLAVYAGLDLARNAWLGWPPEVSFHHLENGSLLVFALFMLTDPRSIPNARSSRLIWATAIAIFSLILQYHFYLPTALFWALFCLSPLTVLLDRQFPAPRFQWWQKKNPVPSN”, the entry is “failed”. The result for “MLTYYLKTEIQLLFRKKVYLVLSILVPLALYLLFTSILDLPEEAKKPFYKEYMYSMTAFSLSSFCLMQFPIDLINEKTTGWYKNLMRTPLQSHQYYMAKVFKMMFQFILAILLIFIVAHFMKGVEMSTSDWLLSGLILWIGASTFLSVGVLISQINEIQKASSIGNILYLSLAILGGLWFPVSQFPEWMRKIAYVTPTYHLKQVAYEIGKGGTLDYLSLFVLVGYSILFLVVALIIQKRRDVDI” reads “failed”. Turning to “MLVLIMWLCQQRSCRRLKRGDPMAQFENNRQRLFVPAVAPLYNSTHDLVETILRVAAGLLLVTHGFGKIVNPFGAVGMVESLGFHPGVFWSPLLAATEFFGGILVAIGLFTRPASFAAMIVLLVTVYFHGIVKAEGLGGAEKSILWAAIFLFFAVRGGNRHSVDAKLTREF”, the protein production result is “failed”. The result for “MLVNFIKNFIPHRFYSSKTEIPVVRLHGAIIDSSSSIARTLSLGRCANLLDKAFAYKKAPAVAVIINSPGGSPVQSRLIFKRIRDLAEEKKKQVLMFIEDIAASGGYMIACAGDEIFADPSSIVGSIGVVSASFGFPELLKKIGIERRVYTAGKNKVTLDPFQPEKKTDIEHLKSLQLEVHKTFIDLVKERRAEKLSNDPNIFTGMFWSGKKSVELGLIDGLNDVRSVIKERFGDDTKLRLIIPPKSLFGPKTPSGVTAHAVHTAIDSALMVAQERALWQYYGLLEHHHHHH” reads “not failed”; that for “MLVNGQHYHLINDISGEKPVLLMLHGFTGSSETFQDSISLLKEHFSIIAPDLLGHGKTSCPKEVARYSIENICDDLASILHQLKIDSCFVLGYSMGGRVATAFAAKYKELVRGLVLVSSSPGLRDEKARASRISADNRLADTLDADGIEPFVAYWENLALFASQKNLPFALKKRIRLERLAQNPHGLAKSLRGMGTGKQPSYWENLADFTFPVLLITGNLDEKFEKIAREMKQLLPNSTHVTVQEAGHAVYLEQPNIFSSQLIYWLEGILKEEEK”, “failed”. In the case of “MLVSEAVLPLLFYGILTPVYQVILRGKISNVKGFYLAWITAPFLVGYFFYSTLVEVFLLLIFNIIGYIIVLKNKYKYIFPLLLFSAVIIQIFYILTTLHTIHG”, the protein production result was “failed”. Consider “MLVSLLGILLSVIVGFVVTLISTKWVIGLCKKRGFTGKDINKLTKDDVPVLGGIGIVAGFVAGSFTFLLTSYNLSPGIENVVVSILLSSLIIGFLGLLDDIFNISQATRAFLPIFASIPLILYSVGHTIISIPFLGKVNFGILFYIIILPATLTITANAFNMLEGLNGLGAGMGLIMALALAYIGLKSGGTSFYAGIVSIILASVLFGFLIFNFYPAKTFPGNIGTYFIGSVIGSIGISGYMYTALFFLYLPYVIEFVLKAKTRFKGVSFGKIDDQGYLHWDSKPNSLTHIVMRIGKFKEYHIVLIIWGIEILFAILAVVFQTVTITI”, for which the protein production entry is “failed”. As for “MLVWLSDSQAVALVGLVGGIALGLAARLGRFCTLGAIEDLLYGGSDVRMRMWVLAIGAAMAGSFGLMGLGWLDPGQSYYLSIRWMPLASILGGLMFGYGMALAGNCGYGSIARLGGGDLRAFVIVLVMGVFTYVTLAGPLAPLRNLLFPQIEVAGDLPPGLAHHAHALTGLPVHVIGIGIGLILCLGALSSRDMRQEPKSIFWSLVVAAAIVGGWAGSYWVYQHGFDGLQVVSHSFSAPVGESILYAMTGSVRPLSFAVGSVAGVWAGAFIGSLIKGHFRWEACEDPRELRRQILGAAIMGTGAVIAMGCTVGQGLTAFSLLAISAPVTFLAIFAGAALGLRQLIEGFSAAE”, the entry is “failed”; as for “MLWARLVGLARLEARALSKKERRSLLERLKPYYTRIPFSEKADLRLVKARTDSGEYEIITVDGVPCLFEWSDGRIYPTLQCLKAFGVDWLKGVVLVDKGAAIALAKGAHLMIPGVVGVEGSFTRGDVVAALYHETRTPVMVGVAEVDSSALEKLYREKARGRAVRRVHRLGDALWELAQEVGKRLS”, “not failed”. The result for “MLYLKRILIVGLSFVVGLINIIGNNYTVFALEKNTLVHQNVMSMIQSQRGGLFDPIYTESLEDNWQGDYIYYGEDTDGSALKWQLLDSDNKDFSKNANSTMFLFSDKTIGTSFWYRENDYGFDYSNVKPGETPIYWQKGYEWDKSDLKTNMEDEMKNKFSSIENEGIIFSSKSSEDAQNVAVGLEKLGTTEMTASKWFPLSIQELTNKCYGFSSVPFNRNQAPLGLHTGDKSRVSSDDKNYLIRSYEEHWTKPMENGMRYHPVFVLNSNSVYGANCAGGLNYGNMYTVQSMRPAMNIDTSKVMLVKSHNQKEIIGIKAVNDSKTNEFKLTLLDDKQKLNIENIKTERDKITFDFEAIGNGKYLSVVVQDENNNVMYYGNIKDNLDKVNVGTMTIDLNQIGLNSKSFSSGEYKLSIFTEQLNFDKKTDYSSKFVDVEVVQNNVPPAVINKVPTIVAEDKVLTVGDTFDPLKDVTAYDNEDGIIKLTEANIAANDVNTNKEGTYNVTYKVTDKQGASSTKTITIDVIERIVIPENKPVDKTNNDTNSSNSSKVPQTGDINNIGVLAVTLMMSGSIVIGCNRKKSKANSLSEK” reads “failed”; that for “MLYLNFPSVSIRLFASDESNTLKRWPVFPRSLRQLVMLAFLLILLPLLVLAWQAWQSLNALSDQAALVNRTTLIDARRSEAMTNAALEMERSYRQYCVLDDPTLAKVYQSQRKRYSEMLDAHAGVLPDDKLYQALRQDLNNLAQLQCNNSGPDAAAAARLEAFASANTEMVQATRTVVFSRGQQLQREIAERGQYFGWQSLVLFLVSLVMVLLFTRMIIGPVKNIERMINRLGEGRSLGNSVSFSGPSELRSVGQRILWLSERLSWLESQRHQFLRHLSHELKTPLASMREGTELLADQVVGPLTPEQKEVVSILDSSSRNLQKLIEQLLDYNRKQADSAVELDNVELAPLVETVVSAHSLPARAKMMHTDVDLKATACLAEPMLLMSVLDNLYSNAVHYGAESGNICLRSSLHGARVYIDVINTGTPIPQEERAMIFEPFFQGSHQRKGAVKGSGLGLSIARDCIRRMQGELYLVDESGQDVCFRIELPSSKNTK”, “failed”; that for “MLYNSEVITYERAPKSEKDTKVENIKKLFILKVLIYAVSSFAISRVVMINSMVPFGIAFLACVLIYKKNDKASFLAAVGSLVGYISISGEVKDSVMYEIGVIIITLLMVVMKEKEDIKKLVTSAIFLLIEFIMFKILVEKLTVQSALIFTLIEIACVCSVYYIIRYGIICLDNIRTKHLFTNEEIISMSVLVALVISGTRNFDIYNVSIRNVLAMVFVIAISYIEGSSAGAAGGIAIGAIIGMNSSDVMIYIGVFGFLGFIAGVFKDFGKWITAGVYLIIFLIIIIYCKNHVDFSLMEAAITCIIFAGIPNKLYKKMECEFNWDRKQSDITNRYIEKMKDIFVKKLENFSEVLFTMSTTLNNLADNDKLTMKNKSCRLVENLADRVCGKCNMNSICWKREIYYTYAAFEELIQNFQEGINKIPDEIERKCVRRKELIKHTDMIINDYIMNEMWRMQVCSGREFMSAQVKNIGTSVENIIDEFSNELKFNVDVEEKIIRLLNKMGIPYKDIMCVNDKRNRNLVKLTMEACGGRQICVKHVLPVINEAVGTLMCVGDDGCSICPETNLCSVTFEETPKYYISSQIVRACKDGEEVNGDSYSFGKGKDGNYNIIISDGMGHGVQAEKESRAVIDLIEKFNESSLNRTMAINTVNSIMTLKFEEDEKFSTVDLCSVDLYSGDAEFIKVGGVTSFIKKKDKIEVINAKTLPIGVLDTVDMEVNHKKVENGDMIVMISDGVVNYDDENAGKVNWIIDFLKNSSANKPKELGEAMLKKAIELSGGKAKDDITIIISKVYSLY”, “failed”.

On to “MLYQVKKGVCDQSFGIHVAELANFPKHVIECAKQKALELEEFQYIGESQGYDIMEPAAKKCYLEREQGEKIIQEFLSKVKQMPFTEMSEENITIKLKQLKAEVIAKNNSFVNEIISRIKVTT”, for which the protein production result is on record as “failed”. Regarding “MMAEGGAADLDTQRSDIATLLKTSLRKGDTWYLVDSRWFKQWKKYVGFDSWDKYQMGDQNVYPGPIDNSGLLKDGDAQSLKEHLIDELDYILLPTEGWNKLVSWYTLMEGQEPIARKVVEQ”, the protein production result was “not failed”.

For “MMAPPSQVQGRLSSSMNKSLALLTVTLLLGGCQSLIHKTPDGTPPVEDTAVETKAKPEKYGSFSEDSLYSLLVAELAGQRNRFDIALSNYVVQAQKTRDPGVSERAFRIAEYLGADQEALDTSLLWARSAPDNLDAQRAAAIQLARAGRYEESMVYMEKVLNGQGDTHFDFLALSAAETDPDTRAGLLQSFDHLLKKYPNNGQLLFGKALLLQQDGRPDEALTLLEDNSASRHEVAPLLLRSRLLQSMKRSDEALPLLKAGIKEHPDDKRVRLAYARLLVEQNRLDDAKAEFAGLVQQFPDDDDLRFSLALVCLEAQAWDEARIYLEELVERDSHVDAAHFNLGRLAEEQKDTARALDEYAQVGPGNDFLPAQLRQTDVLLKAGRVDEAAQRLDKARSEQPDYAIQLYLIEAEALSNNDQQEKAWQAIQEGLKQYPEDLNLLYTRSMLAEKRNDLAQMEKDLRFVIAREPDNAMALNALGYTLADRTTRYGEARELILKAHKLNPDDPAILDSMGWINYRQGKLADAERYLRQALQRYPDHEVAAHLGEVLWAQGRQGDARAIWREYLDKQPDSDVLRRTIKRLTGAETP”, the protein production entry is listed as “failed”.
